# Results: article PMC10411744 (PLOS Pathogens, 2023)
# Changes are numbered by the printed parent chain. In names and notes the source's numbering stands.
# B1: LAH31 with light chain position 92 reverted to germline (R92L) (antibody, V domains shown)
# VH: QVQLEQSGAEVKKPGSSVKVSCKASGPMFSRSAFSWVRQAPGQGLEWMGRIIPTVDLKNYAQKFQGRVTFTADKSTATSYMELRSLKSEDTAVYYCARMGSGSSYYGMDVWGLGTTVTVSS
# VL: DIVMTQSPLSLPVIPGEPASISCRSSQSLLQSNGNNYLDWYLQKPGQSPQLLIYLGSNRASGVPDRFSGSGSGTDFTLTISRVEAEDVGVYYCLQALQSSVLTFGGGTKLEIK
# notes: IgG1
# B2: LAH31 mouse IgG2c LALA-PG mutant (antibody, V domains shown)
# VH: B1 VH
# VL: B1 VL with L97R
# B3: LAH31 mouse IgG2c LALA mutant (antibody, V domains shown)
# VH: B1 VH
# VL: B1 VL with L97R
# B4: LAH31 with light chain position 95 reverted to germline (Ser95 to Pro95) (antibody, V domains shown)
# VH: B1 VH
# VL: B1 VL with L97R, S100P
# B5: LAH31 with light chain position 94 reverted to germline (Ser94 to Thr94) (antibody, V domains shown)
# VH: B1 VH
# VL: B1 VL with L97R, S99T
# B6: LAH31 mouse IgG2c KA mutant (antibody, V domains shown)
# VH: B1 VH
# VL: B1 VL with L97R
# Experiments:
# [1] = target: X31 (H3N2) trimeric full-length HA (prefusion stabilized HA) (influenza A virus X31 (H3N2), biotin (biotinylated for capture on streptavidin)); experiment: ELISA; conditions: both partners purified
# [2] = target: HA of H1 A/Narita/1/2009 (influenza A virus A/Narita/1/2009 (H1)); experiment: ELISA; conditions: both partners purified
Binder,binding result [1],binding result [2]
B1,binds,
B2,binds,
B3,binds,
B4,binds,binds
B5,binds,binds
B6,binds,
